Earlier results as cited in PMC9966187.

In the case of E-selectin (from UniProt P16581), the Kd (C-(IEELQAR) peptide) is given as 35 µM and the Kd (C-(IELFQAR) peptide) is given as 16 µM.
